Test results as given in article doi:10.1101/541805.

Molecular target: rat Kv2.2-GFP (rat) (UniProt Q63099)

## GxTX-594 (guangxitoxin-1E Ser13Cys, Met35 norleucine, conjugated to Alexa 594) (from UniProt P84835 1-36) (peptide)
  Pearson correlation coefficient (colocalization with GFP): 0.8
